Test results taken from article PMC8437459.

Target: T1, MgaSpn (Streptococcus pneumoniae D39 (JH1900)) (UniProt A0A0H2ZN44)
T1 sequence: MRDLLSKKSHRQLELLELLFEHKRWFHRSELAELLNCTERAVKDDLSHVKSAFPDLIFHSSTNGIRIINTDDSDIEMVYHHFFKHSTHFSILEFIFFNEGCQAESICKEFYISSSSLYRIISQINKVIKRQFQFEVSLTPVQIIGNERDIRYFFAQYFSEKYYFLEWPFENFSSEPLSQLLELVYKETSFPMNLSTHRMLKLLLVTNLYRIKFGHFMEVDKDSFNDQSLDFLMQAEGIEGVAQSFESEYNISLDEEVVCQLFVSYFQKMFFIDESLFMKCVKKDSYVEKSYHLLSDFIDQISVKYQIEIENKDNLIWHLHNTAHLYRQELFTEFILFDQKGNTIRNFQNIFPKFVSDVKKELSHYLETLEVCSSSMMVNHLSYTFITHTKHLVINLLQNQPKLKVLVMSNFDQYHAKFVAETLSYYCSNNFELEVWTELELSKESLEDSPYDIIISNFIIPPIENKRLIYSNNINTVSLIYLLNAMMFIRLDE
Assay: EMSA

TACACATCTGCTTCTAAAATATTGTTAGAAAACGATTTGACTGTCCTGATCAATTTGTCATGTTCTTATTTCATTTTACTATATTTTTGGTTCGCGGGAAGTCTACTAAGATACTTAAAGATGCAGATAGTGAAAAAAGGTGTAGACATTACCGTAAAAAAGTGATATAATCGTAAGATGTTCAATGTATAGGTGTTAATCATGAGTAGACGTTTTAA (double strand) [Pcps probe (EMSA)]
binding: binds
